Results on 7 molecules are retold here after patent US8735553 (BEIGENE SWITZERLAND, dated 2014).

Read-outs that look alike come from different tables or passages of the source.

Assay [1] concerns the target T1, human FcγRI (human, UniProt P12314 16-374).
T1 construct: whole, on cells; also called FcγR1
In words: flow cytometry, FcγR+ HEK293 cells. On the technique in general: Flow cytometry measures light scatter and fluorescence of single cells or particles in a stream.
Procedure: (§1) Binding of various IgG4 mutants to FcγRs was determined by flow cytometry. In brief, a series of HEK293 transfectants expressing human FcγRs were established. These transfectants expressed FcγRI, FcγRIIA, FcγRIIB or FcγRIIIA Multi-subunit FcγRs (i.e., FcγR1 and FcγRIIIA) were co-expressed with FcRγ. Polymorphic variants (i.e., FcγRIIA H131 and R131, FcγRIIIA F158 and V158) were also included.

Assay [2] deals with T2, human FcγRIIA (H131) (human, UniProt P12318 34-317).
T2 construct: whole, on cells
T2 sequence (looked up): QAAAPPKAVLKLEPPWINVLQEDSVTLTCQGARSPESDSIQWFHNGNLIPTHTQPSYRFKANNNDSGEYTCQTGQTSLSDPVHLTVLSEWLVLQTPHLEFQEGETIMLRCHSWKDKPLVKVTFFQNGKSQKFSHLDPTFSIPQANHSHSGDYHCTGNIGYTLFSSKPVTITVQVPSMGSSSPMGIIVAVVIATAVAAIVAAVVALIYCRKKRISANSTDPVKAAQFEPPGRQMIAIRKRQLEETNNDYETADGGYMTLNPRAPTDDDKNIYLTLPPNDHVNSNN
Nature of the assay: flow cytometry, FcγR+ HEK293 cells.
Procedure: as §1

The target of assay [3] is T3, human FcγRIIA (R131) (human, UniProt P12318 34-317).
T3 construct: whole, on cells
T3 sequence (looked up): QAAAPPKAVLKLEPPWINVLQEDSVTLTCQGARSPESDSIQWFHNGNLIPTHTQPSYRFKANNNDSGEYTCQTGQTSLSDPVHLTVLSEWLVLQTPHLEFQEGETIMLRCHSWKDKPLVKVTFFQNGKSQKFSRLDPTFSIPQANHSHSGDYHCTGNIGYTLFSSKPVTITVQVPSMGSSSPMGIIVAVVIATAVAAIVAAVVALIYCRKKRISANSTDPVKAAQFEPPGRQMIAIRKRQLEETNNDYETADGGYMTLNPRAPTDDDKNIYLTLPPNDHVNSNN
Nature of the assay: flow cytometry, FcγR+ HEK293 cells.
Procedure: as §1

Assay [4] deals with T4, human FcγRIIIA (F158) (human, UniProt P08637 17-254).
T4 construct: whole, on cells
T4 sequence (P08637 17-254): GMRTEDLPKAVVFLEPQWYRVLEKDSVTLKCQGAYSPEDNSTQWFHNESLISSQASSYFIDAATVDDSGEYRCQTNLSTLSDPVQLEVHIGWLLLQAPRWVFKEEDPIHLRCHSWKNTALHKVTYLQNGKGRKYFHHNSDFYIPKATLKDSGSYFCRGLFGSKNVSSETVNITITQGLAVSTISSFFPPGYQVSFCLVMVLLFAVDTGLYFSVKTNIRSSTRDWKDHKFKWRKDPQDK
In words: flow cytometry, FcγR+ HEK293 cells.
Procedure: as §1

In assay [5] the target is T5, human PD-1 expressed on cells (human, UniProt Q15116 25-288). Nature of the assay: cell-based or functional assay.
T5 sequence (Q15116 25-288): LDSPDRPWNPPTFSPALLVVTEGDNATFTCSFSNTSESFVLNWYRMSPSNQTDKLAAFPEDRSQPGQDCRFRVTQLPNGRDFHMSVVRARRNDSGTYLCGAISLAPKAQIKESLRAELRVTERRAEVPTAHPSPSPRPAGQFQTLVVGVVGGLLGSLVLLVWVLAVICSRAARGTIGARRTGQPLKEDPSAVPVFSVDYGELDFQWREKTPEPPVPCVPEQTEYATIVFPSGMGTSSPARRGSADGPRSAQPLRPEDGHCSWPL
Assay [6] has as its target T5, human PD-1 expressed on cells. Nature of the assay: cell-based or functional assay. The source holds these as a separate data set.
The target of assay [7] is P3Z chimeric PD-1 receptor (human). Nature of the assay: cell-based or functional assay.
Chain of P3Z chimeric PD-1 receptor (human) (chain, as listed by the source mutant limits assumed): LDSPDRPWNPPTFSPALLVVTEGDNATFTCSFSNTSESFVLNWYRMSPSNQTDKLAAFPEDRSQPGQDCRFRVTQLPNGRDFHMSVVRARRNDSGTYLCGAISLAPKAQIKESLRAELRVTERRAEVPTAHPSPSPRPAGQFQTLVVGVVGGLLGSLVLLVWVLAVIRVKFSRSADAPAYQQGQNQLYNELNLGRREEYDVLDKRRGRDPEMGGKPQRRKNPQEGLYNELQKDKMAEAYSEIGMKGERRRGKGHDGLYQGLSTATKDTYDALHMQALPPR
Assay [8] has the same target. Nature of the assay: cell-based or functional assay. The source holds these as a separate data set.
The target of assay [9] is T5, human PD-1 expressed on cells. In words: cell-based or functional assay. The source holds these as a separate data set.
Assay [10] has the same target. In words: cell-based or functional assay. The source holds these as a separate data set.
The target is the same in assay [11]. In words: cell-based or functional assay. This is another data set of the same source.
Assay [12] has as its target P3Z chimeric PD-1 receptor (human). In words: cell-based or functional assay. The source holds these as a separate data set.
For assay [13], the target named is T5, human PD-1 expressed on cells. In words: FACS on PD-1-expressing cells.
Assay [14] deals with T6, PD-1-EC/Fc (human, UniProt Q15116 21-168).
T6 construct: AA 1-168 includes the signal peptide; Made in 293-F cells; also called PD-1/Fc
T6 sequence (Q15116 21-168 limits assumed): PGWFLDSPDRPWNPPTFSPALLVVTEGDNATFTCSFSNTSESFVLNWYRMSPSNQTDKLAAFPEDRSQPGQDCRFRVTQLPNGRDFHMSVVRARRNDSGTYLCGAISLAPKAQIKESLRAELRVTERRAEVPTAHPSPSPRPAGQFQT
In words: SPR (BIAcore T-200), mAb captured on anti-mouse Fc chip, PD-1/Fc injected. For orientation: In SPR one partner is held on a chip, and binding of the other changes the refractive index at the surface.
Procedure: Anti-mouse Fc CM5 biosensor chip (GE Healthcare) was generated using a standard primary amine coupling protocol. […] Association rates (K_a or $kon$) and dissociation rates (K_d or $koff$) were calculated using the one-to-one Langmuir binding model (BIA Evaluation Software, GE Life Sciences). The equilibrium dissociation constant (K_D) was calculated as the ratio $koff/kon$.

Assay [15] addresses T5, human PD-1 expressed on cells. In words: FACS on HuT78/PD-1 cells, MFI against Ab concentration (unit taken from the x axis, µg/ml).
Procedure: To block human Fc receptors, cells were pre-incubated with human IgG (20 μg/ml) (Cat. No. H11296, LifeHolder, USA and Shanghai, China).
Dose-dependent reaction curve of murine mAbs binding to human PD-1 expressed on live cells by FACS analyses. […] MFI stands for mean fluorescence intensity. HuT78/PD-1 cells were suspended in 96-well plate at 5 ×10^4 cells per well for FACS.
Assay [16] shares this target. Nature of the assay: cell-based or functional assay. This is another data set of the same source.
Assay [17] has as its target P3Z chimeric PD-1 receptor (human). Nature of the assay: cell-based or functional assay. This is another data set of the same source.
Assay [18] addresses T5, human PD-1 expressed on cells. Nature of the assay: FACS on PD-1-expressing cells, goat anti-mouse IgG detection.
Assay [19] addresses T7, wild-type human PD-1 recombinant protein (PD-1/His or PD-1/Fc, not said which) (human, UniProt Q15116 21-168).
T7 construct: also called WT PD-1
In words: ELISA on coated recombinant PD-1; cell carries the * mark (Fab version); ELISA cell marked *. A general note: ELISA stands for enzyme-linked immunosorbent assay.

The target in assay [20] is T5, human PD-1 expressed on cells. Nature of the assay: FACS on PD-1-expressing cells. This is another data set of the same source.
The target in assay [21] is T8, PD-1-EC/His (human, UniProt Q15116 21-168).
T8 construct: AA 1-168 includes the signal peptide; also called PD-1/His; human PD-1/His
T8 sequence (Q15116 21-168): as the sequence (Q15116 21-168 limits assumed) above
Nature of the assay: SPR (BIAcore T-200), human PD-1/His coupled to CM5 chip, Fab injected.
Procedure: For affinity determinations of anti-PD-1 Fabs, SPR assays were used with the BIAcore™ T-200 instrument (GE Life Sciences). […] Association rates ($kon$) and dissociation rates ($koff$) were calculated using the one-to-one Langmuir binding model (BIA Evaluation Software, GE Life Sciences). The equilibrium dissociation constant (K_d) was calculated as the ratio $koff/kon$.

T1 sequence (P12314 16-374): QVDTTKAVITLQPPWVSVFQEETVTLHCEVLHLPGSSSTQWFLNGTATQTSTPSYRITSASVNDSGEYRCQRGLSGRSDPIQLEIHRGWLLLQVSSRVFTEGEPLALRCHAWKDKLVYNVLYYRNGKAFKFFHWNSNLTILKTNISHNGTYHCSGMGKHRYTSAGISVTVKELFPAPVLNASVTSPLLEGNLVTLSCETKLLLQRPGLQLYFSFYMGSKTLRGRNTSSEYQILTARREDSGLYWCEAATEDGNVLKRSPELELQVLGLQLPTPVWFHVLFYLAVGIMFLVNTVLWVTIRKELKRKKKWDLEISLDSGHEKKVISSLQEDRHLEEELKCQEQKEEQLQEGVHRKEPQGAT
T7 sequence (Q15116 21-168 limits assumed): as the sequence (Q15116 21-168 limits assumed) above

B1: hu317-4B6/IgG4mt6 (antibody)
heavy: QVQLQESGPGLVKPSETLSLTCTVSGFSLTSYGVHWIRQPPGKGLEWIGVIYADGSTNYNPSLKSRVTISKDTSKNQVSLKLSSVTAADTAVYYCARAYGNYWYIDVWGQGTTVTVSSASTKGPSVFPLAPCSRSTSESTAALGCLVKDYFPEPVTVSWNSGALTSGVHTFPAVLQSSGLYSLSSVVTVPSSSLGTKTYTCNVDHKPSNTKVDKRVESKYGPPCPPCPAPPVAGGPSVFLFPPKPKDTLMISRTPEVTCVVVAVSQEDPEVQFNWYVDGVEVHNAKTKPREEQFNSTYRVVSVLTVLHQDWLNGKEYKCKVSNKGLPSSIEKTISKAKGQPREPQVYTLPPSQEEMTKNQVSLTCLVKGFYPSDIAVEWESNGQPENNYKTTPPVLDSDGSFFLYSRLTVDKSRWQEGNVFSCSVMHEALHNHYTQKSLSLSLGK
VL: DIVMTQSPDSLAVSLGERATINCKSSESVSNDVAWYQQKPGQPPKLLINYAFHRFTGVPDRFSGSGYGTDFTLTISSLQAEDVAVYYCHQAYSSPYTFGQGTKLEIK
notes: Light chain constant region not restated for this format; copies: 2 + 2
In the case of B1, the MFI in assay [1] was determined as 1 MFI.

B2: hu317-1/IgG4mt6 (antibody)
heavy: QVQLQESGPGLVKPSETLSLTCTVSGFSLTSYGVHWIRQPPGKGLEWLGVIWAGGSTNYNPSLKSRLTISKDNSKSQVSLKMSSVTAADTAVYYCARAYGNYWYIDVWGQGTTVTVSSASTKGPSVFPLAPCSRSTSESTAALGCLVKDYFPEPVTVSWNSGALTSGVHTFPAVLQSSGLYSLSSVVTVPSSSLGTKTYTCNVDHKPSNTKVDKRVESKYGPPCPPCPAPPVAGGPSVFLFPPKPKDTLMISRTPEVTCVVVAVSQEDPEVQFNWYVDGVEVHNAKTKPREEQFNSTYRVVSVLTVLHQDWLNGKEYKCKVSNKGLPSSIEKTISKAKGQPREPQVYTLPPSQEEMTKNQVSLTCLVKGFYPSDIAVEWESNGQPENNYKTTPPVLDSDGSFFLYSRLTVDKSRWQEGNVFSCSVMHEALHNHYTQKSLSLSLGK
VL: DIVMTQSPDSLAVSLGERATINCKASQSVSNDVAWYQQKPGQPPKLLINYAFHRFTGVPDRFSGSGYGTDFTLTISSLQAEDVAVYYCHQAYSSPYTFGGGTKLEIK
notes: as for B1
On to B2, for which the MFI in assay [2] stood at 1 MFI; in [3], 0.8 MFI; in assay [4], 0.9 MFI.

B3: murine mAb 326 (antibody, V domains shown)
VH: QIQLVQSGPELKKPGETVKISCKASGYTFTNYGMNWVKQAPGKGLKWMGWINNNNGEPTYAEEFKGRFAFSLETSASTAYLQINNLKNEDTATYFCARDVMDYWGQGTSVTVSS
VL: DIVLTQSPASLAVSLGQRATISCRASESVDNYGYSFMHWYQQKPGQPPQLLIYRASNLESGIPARFSGSGSRTGFTLTINPVEADDVATYYCQQSKEYPTFGGGTKLEVK
notes: Murine hybridoma antibody; also called mu326
In the case of B3, the “IL-2 release, EC50 (HuT78/PD-1 + HEK293/OS8/PD-L1)” value in assay [5] was determined as 0.053 µg/mL. For the same molecule, the “IL-2 release, EC50 (HuT78/PD-1 + HEK293/OS8/PD-L2)” value in assay [6] is 0.038 µg/mL. In addition, the “Inhibition of IL-2 secretion, IC50 (HuT78/P3Z + HEK293/PD-L1)” value in assay [7] is 0.039 µ/ml. Further, the “Inhibition of IL-2 secretion, IC50 (HuT78/P3Z + HEK293/PD-L2)” value in assay [8] came to 0.018 µg/mL. Further, the “IFN-γ secreted, EC50 (NK92MI/PD-1 + SK-MES-1/PD-L1)” value in assay [9] was 0.2 µg/mL. The “Cytotoxicity of NK92MI/PD-1 cells against SK-MES-1/PD-L1, EC50” value in assay [10] is 0.37 µg/mL. In assay [11], the “Assay-1 IL-2 release, EC50 (HuT78/PD-1 + HEK293/OS8/PD-L1)” value worked out at 0.038 µg/mL and the “Assay-1 IL-2 release, Top line (HuT78/PD-1 + HEK293/OS8/PD-L1)” value was determined as 1150 pg/mL. In addition, in assay [12], the “Assay-2 IL-2 release, IC50 (HuT78/P3Z + HEK293/PD-L1)” value worked out at 0.14 µg/mL and the “Assay-2 IL-2 release, Max inhibition (HuT78/P3Z + HEK293/PD-L1)” value came to 96.9%. In addition, in assay [13], the EC50 came to 0.126 µg/mL and the “Top MFI” value was found to be 195 MFI. In assay [14], this molecule had a Kd of 0.324 nM, a koff of 7.79e-05 s⁻¹ and a kon of 240000 M⁻¹ s⁻¹. For the same molecule, in [15], a half-maximal effect (EC50) was put at 0.126 µg/mL.

B4: murine mAb 317 (antibody, V domains shown)
VH: QVQLKESGPGLVAPSKNLSITCTVSGFSLTSYGVHWIRQPPGKGLEWLGVIWAGGSTNYNSALMSRLSISKDNSRSQVFLRMNSLQTDDTAMYYCARAYGNYWYIDVWGAGTTVTVSS
VL: DIVMTQTPKFLLVSAGDRVTITCKASQSVSNDVAWYQQKPGQSPKLLINYAFHRFTGVPDRFTGSGYGTDFIFTISTVQAEDLAVYFCHQAYSSPYTFGGGTKLEMK
notes: Murine hybridoma antibody; also called mu317
For the molecule B4, the “IL-2 release, EC50 (HuT78/PD-1 + HEK293/OS8/PD-L1)” value in assay [5] is 0.083 µg/mL. Also, the “IL-2 release, EC50 (HuT78/PD-1 + HEK293/OS8/PD-L2)” value in assay [6] stood at 0.032 µg/mL. Also, the “Inhibition of IL-2 secretion, IC50 (HuT78/P3Z + HEK293/PD-L1)” value in [7] was determined as 0.083 µ/ml. Further, the “Inhibition of IL-2 secretion, IC50 (HuT78/P3Z + HEK293/PD-L2)” value in assay [8] amounted to 0.02 µg/mL. Moreover, the “IFN-γ secreted, EC50 (NK92MI/PD-1 + SK-MES-1/PD-L1)” value in assay [9] is 0.4 µg/mL. Further, the “Cytotoxicity of NK92MI/PD-1 cells against SK-MES-1/PD-L1, EC50” value in assay [10] amounted to 0.5 µg/mL. Further, in assay [16], the “Assay-1 IL-2 release, EC50 (HuT78/PD-1 + HEK293/OS8/PD-L1)” value worked out at 0.11 µg/mL and the “Assay-1 IL-2 release, Top line (HuT78/PD-1 + HEK293/OS8/PD-L1)” value came out at 346 pg/mL. In addition, in [17], the “Assay-2 IL-2 release, IC50 (HuT78/P3Z + HEK293/PD-L1)” value worked out at 0.11 µg/mL and the “Assay-2 IL-2 release, Max inhibition (HuT78/P3Z + HEK293/PD-L1)” value is 99.5%. In assay [18], a half-maximal response (EC50) required 0.11 µg/mL.

B5: hu326-4A3 Fab (Fab, V domains shown)
VH: QVQLVQSGSELKKPGASVKVSCKASGYTFTNYGMNWVRQAPGQGLKWMGWINNNNAEPTYAQDFRGRFVFSLDTSASTAYLQISSLKTEDTAVYYCARDVMDYWGQGTLVTVSS
VL: DIVLTQSPASLAVSPGQRATITCRASESVDNYGYSFMHWYQQKPGQPPKLLIYRASNLESGVPARFSGSGSGTDFTLTINPVEAEDTANYYCQQSKEYPTFGGGTKVEIK
notes: Fab: VH on human IgG2 CH1 (C232S, C233S, Kabat) with C-terminal c-Myc-His8 tag; also called hu326-4A3 (Fab version)
For the molecule B5, the EC50 in assay [19] was found to be 0.091 µg/mL.

B6: hu326-3B1 (antibody, V domains shown)
VH: QVQLVQSGSELKKPGASVKVSCKASGYTFTNYGMNWVRQAPGQGLKWMGWINNNNGEPTYAQDFRGRFVFSLDTSASTAYLQISSLKTEDTAVYYCARDVMDYWGQGTLVTVSS
VL: DIVLTQSPASLAVSPGQRATITCRASESVDNYGYSFMHWYQQKPGQPPKLLIYRASNLESGVPARFSGSGSRTDFTLTINPVEANDTANYYCQQSKEYPTFGGGTKVEIK
notes: Humanized mAb
Take B6: the midpoint of the response in assay [20], the EC50, lay at 0.165 µg/mL.

B7: hu326-3G1 Fab (Fab, V domains shown)
VH: QVQLVQSGPELKKPGASVKVSCKASGYTFTNYGMNWVRQAPGQGLKWMGWINNNNGEPTYAQDFRGRFVFSLDTSASTAYLQISSLKTEDTAVYYCARDVMDYWGQGTLVTVSS
VL: DIVLTQSPASLAVSPGQRATITCRASESVDNYGYSFMHWYQQKPGQPPKLLIYRASNLESGVPARFSGSGSRTDFTLTINPVEANDTANYYCQQSKEYPTFGGGTKVEIK
notes: Fab: VH on human IgG2 CH1 (C232S, C233S, Kabat) with C-terminal c-Myc-His8 tag
Take B7: the Kd in [21] was found to be 1 nM.

In general, EC50 refers to the concentration at which the effect is half-maximal. Usually Kd stands for the equilibrium constant for the complex coming apart. Read a low Kd as tighter binding. For orientation: koff means the rate constant with which the complex falls apart. As usually defined, the kon is the second-order rate constant of association.
